The values below come from paper PMC6818353, “Diversified Application of Barcoded PLATO (PLATO-BC) Platform for Identification of Protein Interactions” (Genomics, Proteomics & Bioinformatics, 2019).

The target in the assay is T1, N-terminal biotinylated ubiquitin (UniProt P0CG48 1-76, biotin on the N-terminus).
T1 construct: also called Bio-Ub; free ubiquitin peptide; source: bought: BostonBiochem (Catalog No. UB-570)
Put plainly: pull-down; 5 μg His-tagged protein incubated with 1 μg biotinylated molecule (H4ac peptide or Ub) in 50 mM Tris pH 7.5, 150 mM NaCl, 0.1% NP-40, 2 h at 4 °C; captured on streptavidin-coated beads; immunoblot with anti-V5. As to conditions: both partners purified. In general terms: Immunoblotting shows a protein as a band on a membrane.

B1: V5-His6-tagged RIOK3 protein, purified from E. coli (natural protein, human, UniProt O14730 1-519, looked up)
chain: MDLVGVASPEPGTAAAWGPSKCPWAIPQNTISCSLADVMSEQLAKELQLEEEAAVFPEVAVAEGPFITGENIDTSSDLMLAQMLQMEYDREYDAQLRREEKKFNGDSKVSISFENYRKVHPYEDSDSSEDEVDWQDTRDDPYRPAKPVPTPKKGFIGKGKDITTKHDEVVCGRKNTARMENFAPEFQVGDGIGMDLKLSNHVFNALKQHAYSEERRSARLHEKKEHSTAEKAVDPKTRLLMYKMVNSGMLETITGCISTGKESVVFHAYGGSMEDEKEDSKVIPTECAIKVFKTTLNEFKNRDKYIKDDFRFKDRFSKLNPRKIIRMWAEKEMHNLARMQRAGIPCPTVVLLKKHILVMSFIGHDQVPAPKLKEVKLNSEEMKEAYYQTLHLMRQLYHECTLVHADLSEYNMLWHAGKVWLIDVSQSVEPTHPHGLEFLFRDCRNVSQFFQKGGVKEALSERELFNAVSGLNITADNEADFLAEIEALEKMNEDHVQKNGRKAASFLKDDGDPPLLYDE
notes: also called V5-fused RIOK3; pET-DEST42-RIOK3; source: E. coli DE3 strain, purified
Take B1: the binding result is reported as “binds”.
